In publication PMC10421740, “A universal deep-learning model for zinc finger design enables transcription factor reprogramming”:

Key:
[1] = biological target: ZFN pair 1BC_selected + 1ED_selected (synthetic construct, UniProt P14870;P14870 384-579;384-579); assay: Zn; U2OS eGFP disruption, 3 days after nucleofection; conditions: tags: N-terminal 3xFLAG and SV40 NLS (kept in the assay, left out here); copies: 1;1
[2] = biological target: ZFN pair 1BC_design + 1ED_design (synthetic construct, UniProt P14870;P14870 384-579;384-579); assay: as above; conditions: tags: N-terminal 3xFLAG and SV40 NLS (kept in the assay, left out here); copies: 1;1
[3] = biological target: T1, ZFN pair 20BC_selected + 20ED_selected (synthetic construct, UniProt P14870;P14870 384-579;384-579); assay: as above; conditions: tags: N-terminal 3xFLAG and SV40 NLS (kept in the assay, left out here); copies: 1;1
T1 chain 1: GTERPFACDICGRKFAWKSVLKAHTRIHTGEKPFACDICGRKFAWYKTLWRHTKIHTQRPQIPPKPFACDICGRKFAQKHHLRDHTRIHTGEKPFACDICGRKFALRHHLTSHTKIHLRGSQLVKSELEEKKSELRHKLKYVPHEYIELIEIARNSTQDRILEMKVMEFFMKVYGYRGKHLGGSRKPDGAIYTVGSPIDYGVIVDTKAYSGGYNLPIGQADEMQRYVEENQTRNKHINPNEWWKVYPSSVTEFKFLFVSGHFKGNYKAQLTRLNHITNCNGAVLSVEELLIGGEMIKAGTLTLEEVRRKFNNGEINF
T1 chain 2: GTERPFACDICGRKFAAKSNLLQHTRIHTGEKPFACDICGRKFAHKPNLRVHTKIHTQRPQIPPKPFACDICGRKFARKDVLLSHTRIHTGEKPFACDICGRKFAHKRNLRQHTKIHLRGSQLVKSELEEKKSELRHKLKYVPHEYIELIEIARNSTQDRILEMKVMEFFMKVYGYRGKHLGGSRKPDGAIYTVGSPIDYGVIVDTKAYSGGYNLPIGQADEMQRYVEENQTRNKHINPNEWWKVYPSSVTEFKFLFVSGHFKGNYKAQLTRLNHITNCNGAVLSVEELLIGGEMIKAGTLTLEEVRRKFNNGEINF

[4] = biological target: ZFN pair 20BC_designed + 20ED_designed (synthetic construct, UniProt P14870;P14870 384-579;384-579); assay: as above; conditions: tags: N-terminal 3xFLAG and SV40 NLS (kept in the assay, left out here); copies: 1;1
[5] = biological target: ZIM3 reprogrammed with array Tet3 Rev (synthetic construct, UniProt Q96PE6 1-166); assay: Zn; HEK293T, 7x tetO CMV eGFP reporter
Sequence of ZIM3 reprogrammed with array Tet3 Rev (Q96PE6 other isoform, or with tags, fused parts or gaps): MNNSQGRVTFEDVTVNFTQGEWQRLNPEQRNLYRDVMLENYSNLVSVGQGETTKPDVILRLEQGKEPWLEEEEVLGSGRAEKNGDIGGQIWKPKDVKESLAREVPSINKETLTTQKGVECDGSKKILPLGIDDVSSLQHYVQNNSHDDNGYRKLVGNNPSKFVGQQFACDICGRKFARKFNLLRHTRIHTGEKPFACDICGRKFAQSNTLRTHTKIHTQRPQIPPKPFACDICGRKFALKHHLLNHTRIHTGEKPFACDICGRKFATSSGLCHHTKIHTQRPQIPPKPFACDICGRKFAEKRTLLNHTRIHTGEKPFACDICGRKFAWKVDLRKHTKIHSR

[6] = biological target: T2, KLF6 reprogrammed with array Tet4 Rev (synthetic construct, UniProt Q99612 1-199); assay: Zn; HEK293T, 7x tetO minimal CMV GFP reporter
T2 chain: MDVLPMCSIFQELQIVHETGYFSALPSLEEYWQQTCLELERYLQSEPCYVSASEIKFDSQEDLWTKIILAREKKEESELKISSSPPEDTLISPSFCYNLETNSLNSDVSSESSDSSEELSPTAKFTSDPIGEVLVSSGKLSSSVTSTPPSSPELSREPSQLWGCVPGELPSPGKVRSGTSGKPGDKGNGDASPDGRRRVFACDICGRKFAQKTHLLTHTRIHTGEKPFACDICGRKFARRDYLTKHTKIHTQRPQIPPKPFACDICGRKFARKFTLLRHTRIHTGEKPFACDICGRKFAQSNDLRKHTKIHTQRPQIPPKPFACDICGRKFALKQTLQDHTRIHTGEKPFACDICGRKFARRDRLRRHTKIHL

[7] = biological target: T3, KLF6 reprogrammed with array Tet3 Rev (synthetic construct, UniProt Q99612 1-199); assay: Zn; HEK293T, 7x tetO minimal CMV GFP reporter
T3 chain: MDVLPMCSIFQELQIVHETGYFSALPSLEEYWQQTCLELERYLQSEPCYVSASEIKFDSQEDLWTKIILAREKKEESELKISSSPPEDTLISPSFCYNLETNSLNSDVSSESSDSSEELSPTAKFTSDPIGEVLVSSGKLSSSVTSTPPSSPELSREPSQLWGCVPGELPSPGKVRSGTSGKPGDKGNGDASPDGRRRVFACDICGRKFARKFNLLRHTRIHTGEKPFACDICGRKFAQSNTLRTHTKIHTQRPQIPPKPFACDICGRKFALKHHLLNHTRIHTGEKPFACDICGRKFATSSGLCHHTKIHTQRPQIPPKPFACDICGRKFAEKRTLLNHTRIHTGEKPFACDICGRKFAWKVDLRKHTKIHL

[8] = biological target: T4, KLF6 reprogrammed with array CDKN1C_76 (synthetic construct, UniProt Q99612 1-199); assay: Zn; HEK293T, RT-qPCR 3 days after transfection
T4 chain: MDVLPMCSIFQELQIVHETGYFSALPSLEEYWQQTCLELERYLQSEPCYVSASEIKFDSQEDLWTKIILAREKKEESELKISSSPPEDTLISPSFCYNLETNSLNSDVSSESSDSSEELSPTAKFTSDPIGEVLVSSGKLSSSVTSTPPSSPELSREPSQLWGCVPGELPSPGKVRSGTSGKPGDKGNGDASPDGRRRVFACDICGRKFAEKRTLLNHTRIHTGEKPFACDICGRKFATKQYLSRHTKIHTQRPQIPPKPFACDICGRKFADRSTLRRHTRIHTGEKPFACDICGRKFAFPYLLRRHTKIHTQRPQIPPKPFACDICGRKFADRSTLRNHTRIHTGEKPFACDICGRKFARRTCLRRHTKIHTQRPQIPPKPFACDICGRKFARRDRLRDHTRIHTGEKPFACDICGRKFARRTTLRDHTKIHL

[9] = biological target: KLF6 reprogrammed with array CDKN1C_102 (synthetic construct, UniProt Q99612 1-199); assay: Zn; HEK293T, RT-qPCR 3 days after transfection
[10] = biological target: KLF6 reprogrammed with array CDKN1C_125 (synthetic construct, UniProt Q99612 1-199); assay: Zn; HEK293T, RT-qPCR 3 days after transfection
[11] = biological target: KLF6 reprogrammed with array CDKN1C_125 F1-6 (synthetic construct, UniProt Q99612 1-199); assay: Zn; HEK293T, RT-qPCR 3 days after transfection
[12] = biological target: KLF6 reprogrammed with array CDKN1C_150 (synthetic construct, UniProt Q99612 1-199); assay: Zn; HEK293T, RT-qPCR 3 days after transfection
[13] = biological target: T5, KLF6 reprogrammed with array CDKN1C_172 (synthetic construct, UniProt Q99612 1-199); assay: Zn; HEK293T, RT-qPCR 3 days after transfection
T5 chain: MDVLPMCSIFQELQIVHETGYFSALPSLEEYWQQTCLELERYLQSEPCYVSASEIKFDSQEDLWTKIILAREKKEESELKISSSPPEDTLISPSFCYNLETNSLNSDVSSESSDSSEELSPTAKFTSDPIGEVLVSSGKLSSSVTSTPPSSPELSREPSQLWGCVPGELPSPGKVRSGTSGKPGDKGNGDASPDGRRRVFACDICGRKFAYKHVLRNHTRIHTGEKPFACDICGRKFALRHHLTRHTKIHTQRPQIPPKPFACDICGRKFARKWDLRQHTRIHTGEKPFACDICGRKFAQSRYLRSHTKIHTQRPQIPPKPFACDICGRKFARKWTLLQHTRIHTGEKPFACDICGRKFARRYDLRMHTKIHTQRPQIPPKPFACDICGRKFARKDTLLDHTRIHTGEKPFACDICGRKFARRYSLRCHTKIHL

[14] = biological target: KLF6 reprogrammed with array CDKN1C_224 (synthetic construct, UniProt Q99612 1-199); assay: Zn; HEK293T, RT-qPCR 3 days after transfection
[15] = biological target: ZIM3 reprogrammed with array DPH1_24 (synthetic construct, UniProt Q96PE6 1-166); assay: Zn; HEK293T, RT-qPCR 3 days after transfection
Sequence of ZIM3 reprogrammed with array DPH1_24 (Q96PE6 other isoform, or with tags, fused parts or gaps): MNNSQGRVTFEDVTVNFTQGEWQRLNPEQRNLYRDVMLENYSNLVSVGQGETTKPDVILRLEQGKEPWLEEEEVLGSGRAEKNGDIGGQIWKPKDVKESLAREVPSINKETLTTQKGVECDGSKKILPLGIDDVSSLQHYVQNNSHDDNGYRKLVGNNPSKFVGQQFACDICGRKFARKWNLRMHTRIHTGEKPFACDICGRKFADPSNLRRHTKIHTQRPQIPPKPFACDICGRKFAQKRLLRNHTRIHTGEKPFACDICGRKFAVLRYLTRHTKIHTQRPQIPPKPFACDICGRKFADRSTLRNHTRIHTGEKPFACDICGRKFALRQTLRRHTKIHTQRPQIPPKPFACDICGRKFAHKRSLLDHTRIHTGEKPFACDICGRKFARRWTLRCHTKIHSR

[16] = biological target: ZIM3 reprogrammed with array DPH1_51 (synthetic construct, UniProt Q96PE6 1-166); assay: Zn; HEK293T, RT-qPCR 3 days after transfection
Sequence of ZIM3 reprogrammed with array DPH1_51 (Q96PE6 other isoform, or with tags, fused parts or gaps): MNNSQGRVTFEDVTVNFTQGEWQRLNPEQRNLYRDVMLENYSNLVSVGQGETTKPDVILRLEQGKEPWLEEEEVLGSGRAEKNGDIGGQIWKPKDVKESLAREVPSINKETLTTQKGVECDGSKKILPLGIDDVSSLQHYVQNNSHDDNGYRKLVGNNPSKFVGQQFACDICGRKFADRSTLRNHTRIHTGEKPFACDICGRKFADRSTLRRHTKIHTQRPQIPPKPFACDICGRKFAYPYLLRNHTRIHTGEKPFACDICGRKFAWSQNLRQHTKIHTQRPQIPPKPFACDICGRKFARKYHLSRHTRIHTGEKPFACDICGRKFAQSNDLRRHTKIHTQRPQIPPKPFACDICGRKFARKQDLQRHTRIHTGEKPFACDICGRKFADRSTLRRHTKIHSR

[17] = biological target: ZIM3 reprogrammed with array DPH1_75 (synthetic construct, UniProt Q96PE6 1-166); assay: Zn; HEK293T, RT-qPCR 3 days after transfection
Sequence of ZIM3 reprogrammed with array DPH1_75 (Q96PE6 other isoform, or with tags, fused parts or gaps): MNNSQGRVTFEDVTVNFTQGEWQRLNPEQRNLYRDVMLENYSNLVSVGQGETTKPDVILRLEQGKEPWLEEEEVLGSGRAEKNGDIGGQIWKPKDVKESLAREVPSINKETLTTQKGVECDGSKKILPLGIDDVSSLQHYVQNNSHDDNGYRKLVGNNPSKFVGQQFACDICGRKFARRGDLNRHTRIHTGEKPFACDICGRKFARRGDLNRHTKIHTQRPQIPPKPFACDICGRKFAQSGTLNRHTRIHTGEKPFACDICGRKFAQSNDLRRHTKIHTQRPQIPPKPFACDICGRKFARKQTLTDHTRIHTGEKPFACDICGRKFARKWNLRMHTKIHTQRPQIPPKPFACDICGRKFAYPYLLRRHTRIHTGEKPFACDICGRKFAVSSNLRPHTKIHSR

[18] = biological target: ZIM3 reprogrammed with array DPH1_99 (synthetic construct, UniProt Q96PE6 1-166); assay: Zn; HEK293T, RT-qPCR 3 days after transfection
Sequence of ZIM3 reprogrammed with array DPH1_99 (Q96PE6 other isoform, or with tags, fused parts or gaps): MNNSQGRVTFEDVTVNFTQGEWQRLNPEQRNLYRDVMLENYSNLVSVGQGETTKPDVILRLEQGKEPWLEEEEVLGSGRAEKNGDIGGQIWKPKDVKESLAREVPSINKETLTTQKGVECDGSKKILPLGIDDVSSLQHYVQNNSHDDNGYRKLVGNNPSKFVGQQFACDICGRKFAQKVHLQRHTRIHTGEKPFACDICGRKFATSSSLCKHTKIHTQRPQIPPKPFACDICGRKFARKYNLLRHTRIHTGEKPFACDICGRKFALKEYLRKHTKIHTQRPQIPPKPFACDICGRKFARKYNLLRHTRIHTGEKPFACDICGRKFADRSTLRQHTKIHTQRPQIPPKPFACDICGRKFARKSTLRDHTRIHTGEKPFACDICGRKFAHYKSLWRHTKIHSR

[19] = biological target: ZIM3 reprogrammed with array DPH1_126 (synthetic construct, UniProt Q96PE6 1-166); assay: Zn; HEK293T, RT-qPCR 3 days after transfection
Sequence of ZIM3 reprogrammed with array DPH1_126 (Q96PE6 other isoform, or with tags, fused parts or gaps): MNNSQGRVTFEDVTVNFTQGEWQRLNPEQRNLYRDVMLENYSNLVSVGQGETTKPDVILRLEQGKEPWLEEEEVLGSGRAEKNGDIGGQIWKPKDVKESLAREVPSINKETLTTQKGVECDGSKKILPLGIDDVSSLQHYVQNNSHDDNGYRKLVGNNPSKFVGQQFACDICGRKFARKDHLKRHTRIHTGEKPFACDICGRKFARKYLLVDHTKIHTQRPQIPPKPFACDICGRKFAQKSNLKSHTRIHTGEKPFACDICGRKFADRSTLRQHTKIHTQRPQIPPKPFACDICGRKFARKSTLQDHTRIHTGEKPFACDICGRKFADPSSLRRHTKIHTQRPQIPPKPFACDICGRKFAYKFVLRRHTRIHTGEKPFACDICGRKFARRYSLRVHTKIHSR

[20] = biological target: ZIM3 reprogrammed with array DPH1_151 (synthetic construct, UniProt Q96PE6 1-166); assay: Zn; HEK293T, RT-qPCR 3 days after transfection
Sequence of ZIM3 reprogrammed with array DPH1_151 (Q96PE6 other isoform, or with tags, fused parts or gaps): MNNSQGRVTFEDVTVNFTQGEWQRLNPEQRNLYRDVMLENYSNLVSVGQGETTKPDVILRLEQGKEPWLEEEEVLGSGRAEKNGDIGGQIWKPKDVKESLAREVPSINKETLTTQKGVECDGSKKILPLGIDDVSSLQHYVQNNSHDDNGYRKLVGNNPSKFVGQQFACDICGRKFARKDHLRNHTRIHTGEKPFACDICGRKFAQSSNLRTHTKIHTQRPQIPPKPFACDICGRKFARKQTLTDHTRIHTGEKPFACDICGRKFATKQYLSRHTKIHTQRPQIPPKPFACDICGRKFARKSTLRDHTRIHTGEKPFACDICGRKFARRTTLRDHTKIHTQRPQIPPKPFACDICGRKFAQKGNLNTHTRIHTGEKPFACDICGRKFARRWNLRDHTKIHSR

[21] = biological target: ZIM3 reprogrammed with array DPH1_201 (synthetic construct, UniProt Q96PE6 1-166); assay: Zn; HEK293T, RT-qPCR 3 days after transfection
Sequence of ZIM3 reprogrammed with array DPH1_201 (Q96PE6 other isoform, or with tags, fused parts or gaps): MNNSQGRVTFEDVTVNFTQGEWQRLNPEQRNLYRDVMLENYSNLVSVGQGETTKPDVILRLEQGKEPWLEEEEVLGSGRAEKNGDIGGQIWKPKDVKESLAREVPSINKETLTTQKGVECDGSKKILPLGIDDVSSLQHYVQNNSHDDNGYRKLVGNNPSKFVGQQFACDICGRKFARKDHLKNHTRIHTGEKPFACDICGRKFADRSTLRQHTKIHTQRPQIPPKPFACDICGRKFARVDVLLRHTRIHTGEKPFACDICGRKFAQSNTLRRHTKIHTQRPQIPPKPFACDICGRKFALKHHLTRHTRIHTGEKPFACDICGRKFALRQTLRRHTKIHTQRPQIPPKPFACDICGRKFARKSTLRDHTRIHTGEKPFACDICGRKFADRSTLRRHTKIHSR

[22] = biological target: ZIM3 reprogrammed with array DPH1_225 (synthetic construct, UniProt Q96PE6 1-166); assay: Zn; HEK293T, RT-qPCR 3 days after transfection
Sequence of ZIM3 reprogrammed with array DPH1_225 (Q96PE6 other isoform, or with tags, fused parts or gaps): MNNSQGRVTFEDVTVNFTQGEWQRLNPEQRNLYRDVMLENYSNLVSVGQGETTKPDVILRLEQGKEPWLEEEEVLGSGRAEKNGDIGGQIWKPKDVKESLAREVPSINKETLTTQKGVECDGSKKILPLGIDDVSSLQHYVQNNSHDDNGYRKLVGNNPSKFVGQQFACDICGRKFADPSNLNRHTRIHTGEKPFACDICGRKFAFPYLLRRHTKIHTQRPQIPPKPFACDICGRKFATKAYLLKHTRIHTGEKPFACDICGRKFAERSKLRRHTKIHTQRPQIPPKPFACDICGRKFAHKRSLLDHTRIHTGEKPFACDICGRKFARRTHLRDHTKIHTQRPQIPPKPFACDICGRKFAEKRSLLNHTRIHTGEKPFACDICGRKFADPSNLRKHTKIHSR

B1: eGFP site 1 (8 fingers) (dsDNA)
DNA 1: TGTTCACCGGGGTGGTGCCCATCCTGGTCGAGCT
DNA 2: AGCTCGACCAGGATGGGCACCACCCCGGTGAACA
binding signal [1]: ~53 % GFP-negative cells (higher = more activity) | binding signal [2]: ~35 % GFP-negative cells (higher = more activity)

B2: eGFP site 20 (8 fingers) (dsDNA)
DNA 1: GAAGGGCATCGACTTCAAGGAGGACGGCAACATC
DNA 2: GATGTTGCCGTCCTCCTTGAAGTCGATGCCCTTC
binding signal [3]: ~69 % GFP-negative cells (higher = more activity) | binding signal [4]: ~17 % GFP-negative cells (higher = more activity)

B3: tetO (dsDNA)
DNA 1: TCTCCCTATCAGTGATAGAGAC
DNA 2: GTCTCTATCACTGATAGGGAGA
binding signal [5]: ~0.23 normalised eGFP fluorescence (lower = more activity, repressor) | binding signal [6]: ~2500 mean GFP fluorescence (higher = more activity) | binding signal [7]: ~41000 mean GFP fluorescence (higher = more activity)

B4: CDKN1C_76 (dsDNA)
DNA 1: GCGCGCCCCGGCCGCGCGCCCCGCCCCG
DNA 2: CGGGGCGGGGCGCGCGGCCGGGGCGCGC
binding signal [8]: ~2 relative expression (higher = more activity)

B5: CDKN1C_102 (dsDNA)
DNA 1: CGCCCCCGGTGGGTGTGCGCGCGGCCAA
DNA 2: TTGGCCGCGCGCACACCCACCGGGGGCG
binding signal [9]: ~2.5 relative expression (higher = more activity)

B6: CDKN1C_125 (dsDNA)
DNA 1: GCCAATGGGCGGTGCGCGGGGGCCGGGC
DNA 2: GCCCGGCCCCCGCGCACCGCCCATTGGC
binding signal [10]: ~43 relative expression (higher = more activity) | binding signal [11]: ~16.5 relative expression (higher = more activity)

B7: CDKN1C_150 (dsDNA)
DNA 1: GGCCGCGGCGGGGCGGGGCAGCGGGGCG
DNA 2: CGCCCCGCTGCCCCGCCCCGCCGCGGCC
binding signal [12]: ~9 relative expression (higher = more activity)

B8: CDKN1C_172 (dsDNA)
DNA 1: GGGGCGGCCGCCAATCGCCGTGGTGTTG
DNA 2: CAACACCACGGCGATTGGCGGCCGCCCC
binding signal [13]: ~3.3 relative expression (higher = more activity)

B9: CDKN1C_224 (dsDNA)
DNA 1: GCTAATCGCGGCCGGGCCCGCGCGCACG
DNA 2: CGTGCGCGCGGGCCCGGCCGCGATTAGC
binding signal [14]: ~2.5 relative expression (higher = more activity)

B10: DPH1_24 (dsDNA)
DNA 1: CTGCTCCGCTGCCCCGGATACGACCAGC
DNA 2: GCTGGTCGTATCCGGGGCAGCGGAGCAG
binding signal [15]: ~0.27 relative expression (lower = more activity, repressor)

B11: DPH1_51 (dsDNA)
DNA 1: ACCTCTGCCAGGGCCGTCTCGGCCGCCC
DNA 2: GGGCGGCCGAGACGGCCCTGGCAGAGGT
binding signal [16]: ~0.61 relative expression (lower = more activity, repressor)

B12: DPH1_75 (dsDNA)
DNA 1: GAGGGCGCAGCGTTCCAGCACCCACCTC
DNA 2: GAGGTGGGTGCTGGAACGCTGCGCCCTC
binding signal [17]: ~0.62 relative expression (lower = more activity, repressor)

B13: DPH1_99 (dsDNA)
DNA 1: GCCCCGCCCCGAGATGCGAGGTCTGGAG
DNA 2: CTCCAGACCTCGCATCTCGGGGCGGGGC
binding signal [18]: ~0.68 relative expression (lower = more activity, repressor)

B14: DPH1_126 (dsDNA)
DNA 1: GGGGTTGGTCCTGTCCCTAACTTGGGGG
DNA 2: CCCCCAAGTTAGGGACAGGACCAACCCC
binding signal [19]: ~0.14 relative expression (lower = more activity, repressor)

B15: DPH1_151 (dsDNA)
DNA 1: GAGAAAGGCGCCGCCGCCGTTAAAGGGG
DNA 2: CCCCTTTAACGGCGGCGGCGCCTTTCTC
binding signal [20]: ~0.7 relative expression (lower = more activity, repressor)

B16: DPH1_201 (dsDNA)
DNA 1: ACCCCGAGCTGGTGACAGCGGCCCAAGG
DNA 2: CCTTGGGCCGCTGTCACCAGCTCGGGGT
binding signal [21]: ~0.43 relative expression (lower = more activity, repressor)

B17: DPH1_225 (dsDNA)
DNA 1: TACCCCTGGGCTCCGGCTGACAGCGACC
DNA 2: GGTCGCTGTCAGCCGGAGCCCAGGGGTA
binding signal [22]: ~0.62 relative expression (lower = more activity, repressor)
